From US20230020729A1 (Memorial Sloan Kettering, published 2023)

B1: ET200-097 scFv (scFv)
scFv: LPVLTQPPSVSVSPGQTAIITCSGDKLGEKYVSWYQQKPGQSPVLVIDQDTRRPSGIPERFSGSNSGTTATLTISGTQAMDEADYYCQAWDRGVVFGGGTKLTVLGSRGGGGSGGGGSGGGGSLEMAEVQLVESGGDLVQPGRSLRLSCAASGFTFNDYAMHWVRQAPGKGLEWVSGISWSGNNIGYADSVKGRFTISRDNAKNSLYLQMNSLRAEDTALYYCAKDSIRYGITWGGFDYWGQGTLVTVSS
notes: VL-linker-VH; screened as scFv phage clone
B2: ET200-098 scFv (scFv)
scFv: QPVLTQPPSVSKGLRQTATLTCTGNSNNVGNLGVAWLQQHQGHPPKLLSYRNNNRPSGISERLSASRSGNTASLTITGLQPEDEADYYCSAWDSSLSAWVFGGGTKLTVLGSRGGGGSGGGGSGGGGSLEMAEVQLVESGGVVVQPGGSLRLSCAASGFTFDDYAMHWVRQAPGKGLEWVSLINWDGGSTYYADSVKGRFTISRDNSKNSLYLQMNSLRAEDTALYYCAKGMGLRAFDYWGQGTLVTVSS
notes: as for B1
B3: ET200-099 scFv (scFv)
scFv: QSVLTQPPSASGTPGQRVTISCSGSSSNIGSNTVNWYQQLPGTAPKLLIYSNDQRPSGVPDRFSGSKSGTSASLAISGLQSEDEADYYCASWDDSLNGRYVFGTGTKVTVLGSRGGGGSGGGGSGGGGSLEMAQVQLVQSGAEVRKPGASVKVSCKTSGYTFSWYAIHWVRQAPGQRLEWMGWINAGNGNTKYSQKFQGRVSLTRDTSASTAYMELSSLRSDDTAVYYCARPDNYGSGGDVFDIWGQGTMVTVSS
notes: as for B1
B4: ET200-007 scFv (scFv)
scFv: SYVLTQPLSVSVAPGKTARITCGGNNIGSKTVHWYQQKPGQAPVLVIYYDSDRPSGIPERFSGSNSGNTATLTISRVEAGDEADYYCQVWDSSSDHRVFGGGTKLTVLGSRGGGGSGGGGSGGGGSLEMAQVQLQESGPGLVKPSETLSLTCNVSGYSISSGYFWGWIRQPPGKGLEWIGSIYHSRSTYYNPSLKSRVTISVDTSKNQFSLKLNSVTAADTAVYYCARGYGYFDYWGQGTLVTVSS
notes: as for B1
B5: ET200-100 scFv (scFv)
scFv: NFMLTQPHSVSESPGKTVTISCTRSSGSIASNFVQWYQQRPGSAPTPMIYEDNNRPPGVPDRFSASVDSSSNSASLTISGLKTEDEADYYCQSYDTSNVVFGGGTKLTVLGSRGGGGSGGGGSGGGGSLEMAEVQLVESGGGLVQPGGSLRLSCAASGFTFSSYEMNWVRQAPGKGLEWVSYISSSGSTIYYADSVKGRFTISRDNAKNSLYLQMNSLRAEDTAVYYCARWDYGMDVWGQGTTVTVSS
notes: as for B1
B6: ET200-104 scFv (scFv)
scFv: NFMLTQPHSVSESPGKTVTISCTRSSGSIASNYVQWYQQRPGSAPTTVIYEDNQRPSGVPDRFSGSIDSSSNSASLTISGLKTEDEADYYCQSYDSSNVVFGGGTKVTVLGSRGGGGSGGGGSGGGGSLEMAEVQLVESGGGLVQPGGSLRLSCAASGFTFSSYEMNWVRQAPGKGLEWVSYISSSGSTIYYADSVKGRFTISRDNAKNSLYLQMNSLRAEDTAVYYCARWDYGMDVWGQGTTVTVSS
notes: as for B1
B7: ET200-101 scFv (scFv)
scFv: QAVLTQPPSASGAPGQRVTVSCSGSNSNIGSNYVNWYQQFPGTAPKLLMYSSSQRPSGVPDRFSGSKSGTSASLAISGLHSEDEADYYCATWDDSLNAWVFGGGTKLTVLGSRGGGGSGGGGSGGGGSLEMAEVQLVQSGAEVRKPGASVKVSCKTSGYTFTWYAIHWVRQAPGQRLEWMGWINAGSGNTKYSQKFQGRVTLTRDTSASTAYMELSSLRSDDTAVYYCARPNNYGSGGDVFDIWGQGTMVTVSS
notes: as for B1
B8: ET200-102 scFv (scFv)
scFv: QSVVTQPPSVSAAPGQKVTISCSGSSSNIGNNYVSWYQQLPGTAPKLLIYDNNKRPSGIPDRFSGSKSGTSATLGITGLQTGDEADYYCGTWDSSLSAYVFGTGTKVTVLGSRGGGGSGGGGSGGGGSLEMAQVQLVQSGAEVKKPGASVKVSCKASGYTFTNYALHWVRQAPGQGLEWMAWINGGNGNTKYSQNFQGRVTITRDTSASTAYMELSSLRSEDTAVYYCAKPEETAGTIHFDYWGQGTPVTVSS
notes: as for B1
B9: ET200-103 scFv (scFv)
scFv: QAVLTQPHSVSESPGKTVTISCTRSSGSIASNYVQWYQQRPGSAPTTVIYEDNQRPSGVPDRFSGSIDSSSNSASLTISGLKTEDEADYYCQSYDSTITVFGGGTKLTVLGSRGGGGSGGGGSGGGGSLEMAQVQLVQSGAEVKKPGSSVKVSCKASGGTFSSYAISWVRQAPGQGLEWMGGIIPIFGTANYAQKFQGRVTITADESTSTAYMELSSLRSEDTAVYYCAGEGYYDSSGYSNGDAFDIWGQGTMVTVSS
notes: as for B1
B10: ET200-105 scFv (scFv)
scFv: SYVLTQPPSVSVSPGQTASITCSGDRLTNKYVSWYQQKPGQSPVLVIYEDAKRPSGIPARFSGSNSGNTATLTISGTQAMDESEYYCQAWDSSVVVFGGGTKLTVLGSRGGGGSGGGGSGGGGSLEMAEVQLVESGGGLVQPGRSLRLSCAASGFTFDDYAMHWVRQAPGKGLEWVSGISWNSGSIGYADSVKGRFTISRDNAKNSLYLQMNSLRDEDTALYYCAKDRGGGVIVKDAFDIWGQGTMVTVSS
notes: as for B1
B11: ET200-106 scFv (scFv)
scFv: SYELTQPPAASGTPGQRVTISCSGGVSNIGSGALNWYQQLPGTAPKLLIYSYNQRPSGVSDRFSGSRSATSASLAISGLQSEDEADYYCATWDDSVNGWVFGGGTKLTVLGSRGGGGSGGGGSGGGGSLEMAEVQLVESGAEVKKPGDSVKVSCKPSGYNFLNYGINWVRQAPGQGLEWMGWISTYTGNTNYAQKLQGRVTFTTDTSTSTAYMEMRSLRSDDTAVYYCARQQGGGWYDVWGQGTLVTVSS
notes: as for B1
B12: ET200-107 scFv (scFv)
scFv: QSVVTQPPSVSAAPGEKVTISCSGSNFNVGNNDVSWYQQLPGAAPKLLIYDNNKRPSGIPDRFSGSKSGTSATLDITGLHSDDEADYYCGTWDSSLNTGGVFGTGTKVTVLGSRGGGGSGGGGSGGGGSLEMAEVQLVQSGAEVKKPGASVKVSCKASGYTFTSYTISWVRQAPGQGLEWMGWISTYNGLTNYAQNLQGRVTMTTDTFTTTAYMELRSLRSDDTAVYYCVREGSPDYGDFASFDYWGQGTLVTVSS
notes: as for B1
B13: ET200-108 scFv (scFv)
scFv: QSVLTQPPSVSAPPGQKVTISCSGSSSNIGNNYVSWYQQFPGTAPKLLIYDNNKRPSGISDRFSGSKSGTSATLGIAGLQTGDEADYYCGTWDTSLSGFYVFGSGTKVTVLGSRGGGGSGGGGSGGGGSLEMAEVQLVQSGAEVKKPGASVKVSCKASGYTFTSYTISWVRQAPGQGLEWMGWISTYNGLTNYAQNLQGRVTMTTDTFTTTAYMELRSLRSDDTAVYYCVREGSPDYGDFASFDYWGQGTLVTVSS
notes: as for B1
B14: ET200-109 scFv (scFv)
scFv: LPVLTQPPSASATPGQRVTISCSGTTSNIGSNTVHWYQQLPGTAPKLLIYNNNQRPSGVPDRFSGSKSGTSASLAISGLRSEDEATYSCATWDDSLSGVVFGGGTKLTVLGSRGGGGSGGGGSGGGGSLEMAEVQLVQSGAEVKKPGSSVKVSCKASGGTFSSYAISWVRQAPGQGLEWMGGIIPIFGTANYAQKFQGRVTITADESTSTAYMELSSLRSEDTAVYYCARDPAYGDYEYDAFDIWGQGTMVTVSS
notes: as for B1
B15: ET200-008 scFv (scFv)
scFv: QSALTQPASVSGSPGQSITISCTGTSSDVGGYNYVSWYQQHPGKAPKLMIYDVSNRPSGVSNRFSGSKSGNTASLTISGLQAEDEADYYCSSYTSSSTSKVFGGGTKLTVLGSRGGGGSGGGGSGGGGSLEMAEVQLVESGGGVVRPGGSLRLSCAASGFTFGDYGMSWVRQAPGKGLEWVSGINWNGGSTGYADSVKGRFTISRDNAKNSLYLQMNSLRAEDTAVYYCARSKYNFHVYYDYWGQGTLVTVSS
notes: as for B1
B16: ET200-110 scFv (scFv)
scFv: QSVLTQPPSASGTPGQRVTISCSGSSSNIGTNGVNWFQQFPGTAPKLLIYTNDQRPSGVPDRFSGSKSGTSASLAISGLQSADEADYYCAVWDHSLNGPVFGGGTKLTVLGSRGGGGSGGGGSGGGGSLEMAQVQLVQSGAEVKKPGSSVKVSCKASGGTFSSYAISWVRQAPGQGLEWMGGIIPIFGTANYAQKFQGRVTITADESTSTAYMELSSLRSEDTAVYYCARGAGFDAFDIWGQGTMVTVSS
notes: as for B1
B17: ET200-112 scFv (scFv)
scFv: QAVLTQPPSASGTPGQRVTISCSGSSSNIGSNTVNWYQQLPGTAPKLLMYSNDQRPSGVPDRFSGSKSGTSASLAISGLQSEDEADYYCAAWDDSLNGYVFAAGTQLTVLSSRGGGGSGGGGSGGGGSLEMAQVQLQQWGAGLLKPSETLSLTCAVYGGSFSGYYWSWIRQPPGKGLEWIGEINHSGSTNYNPSLKSRVTISVDTSKNQFSLKLSSVTAADTAVYYCAREGLDAFDIWGQGTMVTVSS
notes: as for B1

The binders below were run against T1, human Fc Receptor-Like 5 (FcRL5), full length, expressed on cells (human, UniProt Q96RD9 16-977) (assay: scFv phage: ELISA on His-tag FcRL5, flow cytometry on FcRL5-overexpressing 3T3 and Raji cells).
T1 construct: also called CD307e; IRTA2
T1 sequence: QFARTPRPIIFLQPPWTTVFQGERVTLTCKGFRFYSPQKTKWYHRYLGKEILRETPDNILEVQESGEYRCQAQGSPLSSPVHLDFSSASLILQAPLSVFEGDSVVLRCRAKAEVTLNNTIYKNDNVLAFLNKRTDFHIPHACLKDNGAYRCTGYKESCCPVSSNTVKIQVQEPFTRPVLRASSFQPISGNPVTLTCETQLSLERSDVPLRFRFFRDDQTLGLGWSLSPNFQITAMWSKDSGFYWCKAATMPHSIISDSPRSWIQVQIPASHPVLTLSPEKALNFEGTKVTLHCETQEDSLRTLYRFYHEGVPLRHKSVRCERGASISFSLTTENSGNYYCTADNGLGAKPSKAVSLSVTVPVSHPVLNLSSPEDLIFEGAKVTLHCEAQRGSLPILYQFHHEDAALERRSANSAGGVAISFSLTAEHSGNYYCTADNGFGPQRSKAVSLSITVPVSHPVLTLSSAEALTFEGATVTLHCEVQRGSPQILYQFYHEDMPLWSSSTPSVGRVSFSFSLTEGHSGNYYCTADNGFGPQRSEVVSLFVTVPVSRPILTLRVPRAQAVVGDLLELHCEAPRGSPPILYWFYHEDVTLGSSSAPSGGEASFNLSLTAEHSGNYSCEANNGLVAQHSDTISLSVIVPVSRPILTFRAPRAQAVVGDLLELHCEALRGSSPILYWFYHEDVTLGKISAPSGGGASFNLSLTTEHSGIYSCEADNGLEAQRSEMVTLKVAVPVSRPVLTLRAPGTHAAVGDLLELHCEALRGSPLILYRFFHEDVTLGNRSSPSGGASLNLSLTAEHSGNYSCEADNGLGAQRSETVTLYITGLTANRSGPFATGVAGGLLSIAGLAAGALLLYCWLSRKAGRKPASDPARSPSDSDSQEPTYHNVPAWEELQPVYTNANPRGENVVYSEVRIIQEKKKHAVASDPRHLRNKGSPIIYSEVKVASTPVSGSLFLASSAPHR
B1: binds.
B2: binds.
B3: binds.
B4: binds.
B5: binds.
B6: binds.
B7: binds.
B8: binds.
B9: binds.
B10: binds.
B11: binds.
B12: binds.
B13: binds.
B14: binds.
B15: binds.
B16: binds.
B17: binds.
